Data published in US20110135672A1 (MEDICAL COLLEGE OF GEORGIA RESEARCH INSTITUTE INC GEORGIA, published 2011).

Target: T1, ILT4 receptor on dendritic cells of ILT4 transgenic mice (UniProt Q8N423 22-597, limits assumed)
T1 construct: whole, on cells; also called LILRB2; CD85d
Test: immunoprecipitation with anti-ILT4 antibody, immunoblot with anti-Csk antibody
Experimental: The pellets from 5×10⁶ untreated DCs and DCs treated with HLA-G ligands and LPS were lysed in 1 ml RIPA buffer and precleared several times with Sepharose-coupled protein A (50% wt/vol slurry). Proteins were immunoprecipitated with saturating amounts of anti-ILT4 mAb and protein G Sepharose (Amersham Biosciences). Immunoprecipitation experiments were performed using several ILT4-specific antibodies, including polyclonal anti-ILT4 (C-12), anti-ILT4 (N-14), anti-ILT4 (P-14), anti-ILT (H-300), and anti-ILT4 (42D1) mAb (all from Santa Cruz Biotechnology, Santa Cruz, Calif.). […] The immunoblot was reprobed with anti-SHP-1 and anti-SHP-2 antibodies (both Upstate), and anti-Csk antibody (Santa Cruz Biotechnology). Signals were developed using the enhanced chemoluminescence (ECL) system (Amersham Biosciences). In some cases, densitometric scans of bands were obtained to determine the extent of ILT4-mediated signal inhibition.

T1 sequence (Q8N423 22-597 limits assumed): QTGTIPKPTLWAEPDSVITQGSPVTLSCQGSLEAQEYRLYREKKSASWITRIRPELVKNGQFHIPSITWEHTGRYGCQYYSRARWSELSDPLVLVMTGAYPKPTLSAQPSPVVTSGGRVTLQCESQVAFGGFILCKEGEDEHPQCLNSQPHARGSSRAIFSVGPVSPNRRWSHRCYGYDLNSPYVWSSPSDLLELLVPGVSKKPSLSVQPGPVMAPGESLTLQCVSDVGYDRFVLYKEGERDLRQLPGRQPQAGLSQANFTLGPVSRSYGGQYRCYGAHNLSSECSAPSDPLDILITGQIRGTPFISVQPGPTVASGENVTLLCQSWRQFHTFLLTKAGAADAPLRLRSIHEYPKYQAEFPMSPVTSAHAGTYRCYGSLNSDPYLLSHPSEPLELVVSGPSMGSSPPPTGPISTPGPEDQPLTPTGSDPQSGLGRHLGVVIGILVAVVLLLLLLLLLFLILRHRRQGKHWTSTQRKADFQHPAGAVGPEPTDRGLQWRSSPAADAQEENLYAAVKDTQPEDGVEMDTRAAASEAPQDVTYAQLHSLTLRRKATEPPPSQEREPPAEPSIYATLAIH

binding result: no binding
B1: C-terminal Src kinase (Csk) (enzyme, mouse, UniProt P41241 2-450, looked up)
chain: SAIQAAWPSGTECIAKYNFHGTAEQDLPFCKGDVLTIVAVTKDPNWYKAKNKVGREGIIPANYVQKREGVKAGTKLSLMPWFHGKITREQAERLLYPPETGLFLVRESTNYPGDYTLCVSCEGKVEHYRIMYHASKLSIDEEVYFENLMQLVEHYTTDADGLCTRLIKPKVMEGTVAAQDEFYRSGWALNMKELKLLQTIGKGEFGDVMLGDYRGNKVAVKCIKNDATAQAFLAEASVMTQLRHSNLVQLLGVIVEEKGGLYIVTEYMAKGSLVDYLRSRGRSVLGGDCLLKFSLDVCEAMEYLEGNNFVHRDLAARNVLVSEDNVAKVSDFGLTKEASSTQDTGKLPVKWTAPEALREKKFSTKSDVWSFGILLWEIYSFGRVPYPRIPLKDVVPRVEKGYKMDAPDGCPPAVYEVMKNCWHLDAATRPTFLQLREQLEHIKTHELHL
